Experimental data reported in the supplement of paper PMC9170038.

Test system: MS2 coat protein
Assay: apparent KD of MS2 coat protein; designed switch direction (-1 OFF switch, 1 ON switch): -1; higher = weaker reporter binding
Summary of the method: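 Normalised cluster fluorescence was curve-fitted, and each design's median over clusters is its apparent KD. Before this, SNAP-549-labelled MS2 coat protein was titrated from 0.7 or 1.5 nM, doubling to 3 µM, over RNA switches transcribed on Illumina chips by stalled E. coli RNA polymerase. Titrations had no input, 200 uM small-molecule ligand, or an oligonucleotide input, and steps lasted 0.8–1.5 h (lowest) to 10–20 min (highest).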

[1] = input ligand: microRNA oligo, concentration not stated
[2] = Eterna round: R95, input ligand: FMN 200 uM
[3] = Eterna round: R95, input ligand: microRNA oligo, concentration not stated
[4] = Eterna round: R95, input ligand: none

Row | Sequence | apparent KD of MS2 coat protein (input ligand: FMN 200 uM) | apparent KD of MS2 coat protein (input ligand: none) | apparent KD of MS2 coat protein [1] | apparent KD of MS2 coat protein [2] | apparent KD of MS2 coat protein [3] | apparent KD of MS2 coat protein [4]
1 | AAGGUGGCAGGAUAUACAUGAGGAUCACCCAUGUGAACGUAAGGAGACUCUCUCAAAGGUAGAAGGGUCGGUUC [Eternabot (L2) Solution 1] (Eterna round: R97, puzzle: Exclusion 3) | 56.3 nM | 121 nM | – | – | – | –
2 | AAGUACCGGUGAGGAUAUUUUUAAUAGAACUUUAUGAUAUACAUGAGGAUCACCCAUGUUACUUUAAAGAAGGCAUCGGAUUAA [Mat - Exclusion NG 2 - Mod of JL - D86] (Eterna round: R96, puzzle: Exclusion NG 2) | – | – | 12.5 nM | – | – | –
3 | AAGUACCGGUGAGGAUAUUUUUAAUAGAGCUUUAUGAUAUACAUGAGGAUCACCCAUGUUACGUUAAAGAAGGCAUCGGAUUAA [Mat - Exclusion NG 2 - Mod of JL - D97] (Eterna round: R96, puzzle: Exclusion NG 2) | 16.1 nM | 19.3 nM | 13.7 nM | – | – | –
4 | AAGUACCGUCACGAUAGUGAUGGUACAACAAGCAUGUAAACAUGAGGAUCACCCAUGUCCUCAAAUGCUCGUCUUAU [Sensor 3 - 65] (puzzle: Sensor v3, turn-off variant 2) | – | – | – | 556 nM | 1090 nM | 689 nM
5 | AAGUACCGUCACGAUAGUGAUGGUACAACAAGCAUGUAAACAUGAGGAUCACCCAUGUCCUCAUAUGCUCGUCUUAU [Sensor 3 - 64] (puzzle: Sensor v3, turn-off variant 2) | – | – | – | 375 nM | 34.3 nM | 566 nM
6 | AAGUACCGUCACGAUAGUGAUGGUACAACAAGCAUGUAAACAUGAGGAUCACCCAUGUCCUCGAAUGCUCGUCUUAU [Sensor 3 - 66] (puzzle: Sensor v3, turn-off variant 2) | – | – | – | 554 nM | 772 nM | 519 nM
7 | AAGUACCGUCACGAUAGUGAUGGUACAACAAGCGAAUGUACAUGAGGAUCACCCAUGUCCUCUUUUGCUCGUCUUAU [Sensor 3 - 97] (puzzle: Sensor v3, turn-off variant 2) | – | – | – | 130 nM | 31.9 nM | 155 nM
8 | AAGUACCGUCACGAUAGUGAUGGUACAACAAGUAGUGAAACAUGAGGAUCACCCAUGUCCUCAAUUGCUCGUCUUAU [Sensor 3 - 81] (puzzle: Sensor v3, turn-off variant 2) | – | – | – | 776 nM | 264 nM | 1020 nM
9 | AAGUACCGUCACGAUAGUGAUGGUACAACAAGUAGUGAAACAUGAGGAUCACCCAUGUCCUCAGUUGCUCGUCUUAU [Sensor 3 - 86] (puzzle: Sensor v3, turn-off variant 2) | – | – | – | 283 nM | 269 nM | 298 nM
10 | AAGUACCGUCACGAUAGUGAUGGUACAACAAGUAGUGAAACAUGAGGAUCACCCAUGUCCUCAUUUGCUCGUCUUAU [Sensor 3 - 87] (puzzle: Sensor v3, turn-off variant 2) | – | – | – | 1030 nM | 365 nM | 806 nM
11 | AAGUACCGUCACGAUAGUGAUGGUACAACAGGUAAAUGUACAUGAGGAUCACCCAUGUCCUCUUUUGCUCGUCUUAU [Sensor 3 - 93] (puzzle: Sensor v3, turn-off variant 2) | – | – | – | 147 nM | 36.2 nM | 160 nM
12 | AAGUACCGUCACGAUAGUGAUGGUACAGCAAGCAGUGAAACAUGAGGAUCACCCAUGUCCUCAAUUGCUCGUCUUAU [Sensor 3 - 78] (puzzle: Sensor v3, turn-off variant 2) | – | – | – | 43.3 nM | 211 nM | 44.5 nM
13 | AAGUACCGUCACGAUAGUGAUGGUACAGCAAGUAGUGAAACAUGAGGAUCACCCAUGUCCUCAAUUGCUCGUCUUAU [Sensor 3 - 82] (puzzle: Sensor v3, turn-off variant 2) | – | – | – | 110 nM | 171 nM | 115 nM
14 | AAGUACUACAAGCUUAGGGACAUGAGGAUCACCCAUGUUCGUCUUAUUGAUCUAGGUACGCUGACGUACCUAGAUCA [Mat - Sensor v3 - turn-off var 1 - JL Mod - D10] (puzzle: Sensor v3, turn-off variant 1) | – | – | – | 16.2 nM | 44.5 nM | 15.5 nM
15 | AAGUAGUGUGUGAGGAUAUUGGUGGAAUGACAUAUUAAGAAGGCACAUGAGGAUCACCCAUGUGGGUUGACACG [Brourd's EX4 #19] (Eterna round: R97, puzzle: Brourd's mod of Exclusion 4) | 269 nM | 98.4 nM | – | – | – | –
16 | AAGUAUAGAGGAUAUAGUAGUUACAACAUGAGGAUCACCCAUGUUCUUCAUAACGUAGUUCUAGAAGGCUGAUAAA [EX-5 Malc#28] (puzzle: Exclusion 5) | – | – | – | – | 172 nM | –
17 | AAGUCCAGAGGAUAUCAGACGCGGCACAUGAGGAUCACCCAUGUAUUCCCGUCUGCCGACUGAGAAGGUUGGAAAG [Vesoarusqu] (puzzle: Exclusion 5) | – | – | – | – | 11.1 nM | –
18 | AAGUCGACGGUGAGGAUAUAGGUUGAACGACAGAUCUAGAAGGUACAUGAGGAUCACCCAUGUGGGUAACGUCG [Brourd's EX4 #36] (Eterna round: R97, puzzle: Brourd's mod of Exclusion 4) | 54.8 nM | 98.2 nM | – | – | – | –

Row | Sequence | apparent KD of MS2 coat protein (input ligand: FMN 200 uM) | apparent KD of MS2 coat protein (input ligand: none) | apparent KD of MS2 coat protein [1] | apparent KD of MS2 coat protein [2] | apparent KD of MS2 coat protein [3] | apparent KD of MS2 coat protein [4]
19 | AAGUCGACGGUGAGGAUAUUGGUUGAACGACAGAUUAAGAAGGUACAUGAGGAUCACCCAUGUGGGUAACGUUG [Brourd's EX4 #76] (Eterna round: R97, puzzle: Brourd's mod of Exclusion 4) | 108 nM | 86.2 nM | – | – | – | –
20 | AAGUCGAGCGUGAGGAUAUCGUCCGGACGACCCAACGAGAAGGCACAUGAGGAUCACCCAUGUGAUUCAGCUCA [Brourd's EX4 #50] (Eterna round: R97, puzzle: Brourd's mod of Exclusion 4) | 20.3 nM | 18.7 nM | – | – | – | –
21 | AAGUCGGCAGGAUAUACAUGAGGAUCACCCAUGUAAAUUUUUCGUUUAACUUGAAUGUGUAGAAGGGCCAUGAA [Ex3 #67] (Eterna round: R97, puzzle: Exclusion 3) | 25.8 nM | 27.2 nM | – | – | – | –
22 | AAGUUCAGAGGAUAUGCCCAGCUCGACAUGAGGAUCACCCAUGUAUCCACAGAACGUACGGCAGAAGGCUGCAAUA [Eternabot (Original) Solution 9] (Eterna round: R97, puzzle: Exclusion 5) | 69.4 nM | 86 nM | – | – | – | –
23 | AAGUUGAAAGUCAGGAUAUCCAGACAAAAGUCAACGGAGAAGGGACUUGAGGAUCACCCAAGUGACCCUAAAUG [Usraleribe] (Eterna round: R97, puzzle: Brourd's mod of Exclusion 4) | 23.9 nM | 14.8 nM | – | – | – | –
24 | AAUAACAAGUAAGAUCCUAACAUGAGGAUCACCCAUGUGCUCGUCUUGUAAAGUACUAUCACGAAAGUGAUAGUACA [Sensor 3, v1 - 51] (puzzle: Sensor v3, turn-off variant 1) | – | – | – | 48.3 nM | 295 nM | 54.7 nM
25 | AAUAACAAGUAAGGUCCUAACAUGAGGAUCACCCAUGUGCUCGUCUUAUAAAGUACUAUCACGAAAGUGAUAGUACA [Sensor 3, v1 - 52] (puzzle: Sensor v3, turn-off variant 1) | – | – | – | 52.5 nM | 414 nM | 52.1 nM
26 | AAUAACAAGUAGAUCCUAAACAUGAGGAUCACCCAUGUGCUCGUCUUGUAAAGUACUAUCACGAAAGUGAUAGUACA (Eterna round: R97, puzzle: Sensor, turn-off variant 1) | 84.5 nM | 85.2 nM | – | – | – | –
27 | AAUAACAAGUAGAUCCUAAACAUGAGGAUCACCCAUGUGCUCGUCUUGUAAAGUACUAUCACGAAAGUGAUAGUACA [Sensor 3, v1 - 58] (puzzle: Sensor v3, turn-off variant 1) | – | – | – | 67 nM | 360 nM | 115 nM
28 | AAUAACAAUGUGAGGAUAUCUAGAGCUUCGGCUCUAGAGAAGGCACAUGAGGAUCACCCAUGUCUCAAUAACAA [BmEx4/2-E6] (Eterna round: R97, puzzle: Brourd's mod of Exclusion 4) | 339 nM | 54.6 nM | – | – | – | –
29 | AAUAACAGAGGAUAUACUAAAAUAUGAAUAAAAUAAAUAAAACAUGAGGAUCACCCAUGUAGAAGGCUGAAUAA [JMF's Not so obvious solution 7] (puzzle: Exclusion 2) | – | – | – | 26 nM | 29.3 nM | 25 nM
30 | AAUAACAGAGGAUAUACUAUUUUAUGUAUUUAUUAUUUUGAACAUGAGGAUCACCCAUGUAGAAGGCUGAAUGA [JMF 62] (puzzle: Exclusion 2) | – | – | – | – | 24.4 nM | –
31 | AAUAACAGAGGAUAUACUAUUUUAUGUAUUUAUUAUUUUGAACAUGAGGAUCACCCAUGUAGAAGGCUGAUUAA [JMF 47] (puzzle: Exclusion 2) | – | – | – | – | 28.7 nM | –
32 | AAUAACAGAGGAUAUACUAUUUUAUGUGUUUAUUGUUUUGAACAUGAGGAUCACCCAUGUAGAAGGCUGAAUGA [JMF 67] (puzzle: Exclusion 2) | – | – | – | – | 25.8 nM | –
33 | AAUAACAGAGGAUAUACUAUUUUAUGUGUUUGUUAUUUUAAACAUGAGGAUCACCCAUGUAGAAGGCUGAUUGA [JMF 72] (puzzle: Exclusion 2) | – | – | – | – | 41 nM | –
34 | AAUAACAGAGGAUAUACUGUUUUAUGUGUUUAUUAUUUUAAACAUGAGGAUCACCCAUGUAGAAGGCUGAAUAA [JMF 13] (puzzle: Exclusion 2) | – | – | – | – | 37 nM | –
35 | AAUAACAGAGGAUAUACUGUUUUAUGUGUUUAUUGUUUUGAACAUGAGGAUCACCCAUGUAGAAGGCUGAAUGA [JMF 66] (puzzle: Exclusion 2) | – | – | – | – | 23 nM | –
